Binding result, binding signal and Kd data for eight molecules are collected here from publication PMC5137437.

Broadly, the Kd is the equilibrium constant for the complex coming apart. Higher therefore signals a looser complex.

Data set [1] has as its target T1, Klf4 ZnF1-3 WT (E446) (Mus musculus, UniProt Q60793 396-483). The data set is described as follows: fluorescence polarization. For orientation: Fluorescence polarisation rises when a labelled molecule tumbles more slowly, as on binding a larger partner.
In data set [2] the target is T2, Klf4 ZnF1-3 E446P (Mus musculus, UniProt Q60793 396-483, E446P). As to the kind of experiment: X-ray crystallography.
T2 sequence (Q60793 396-483 E446P): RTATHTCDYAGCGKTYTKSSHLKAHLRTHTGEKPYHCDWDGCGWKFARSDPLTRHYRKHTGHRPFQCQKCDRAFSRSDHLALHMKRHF
The target in data set [3] is T1, Klf4 ZnF1-3 WT (E446). The data set is described as follows: X-ray crystallography.
For data set [4], the target named is T1, Klf4 ZnF1-3 WT (E446). The data set is described as follows: X-ray crystallography. This is another data set of the same source.
For data set [5], the target named is T2, Klf4 ZnF1-3 E446P. As to the kind of experiment: X-ray crystallography. This is another data set of the same source.
In data set [6] the target is T2, Klf4 ZnF1-3 E446P. The data set is described as follows: fluorescence polarization.
The target in data set [7] is T1, Klf4 ZnF1-3 WT (E446). The data set is described as follows: fluorescence polarization. The source holds these as a separate data set.
In data set [8] the target is T2, Klf4 ZnF1-3 E446P. As to the kind of experiment: fluorescence polarization. This is another data set of the same source.
Another data set addresses Klf4 ZnF1-3 E446D (Mus musculus, UniProt Q60793 396-483, E446D). The data set is described as follows: X-ray crystallography.

Where two headings read alike, the source gives them in different places.

T1 sequence (Q60793 396-483): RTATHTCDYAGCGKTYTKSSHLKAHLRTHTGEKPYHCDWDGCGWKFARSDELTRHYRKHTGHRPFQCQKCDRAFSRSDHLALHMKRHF
Klf4 ZnF1-3 E446D, sequence (Q60793 396-483 E446D): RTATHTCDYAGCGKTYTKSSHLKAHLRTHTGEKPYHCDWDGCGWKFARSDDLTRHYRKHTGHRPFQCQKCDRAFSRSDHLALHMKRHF

B1: TpG FP probe (dsDNA)
DNA 1: GAGGTGTGGC
DNA 2: TTGCCACACCTC
Regarding B1, the binding result with Klf4 ZnF1-3 WT (E446) [1] was “binds”.

B2: TpG crystal duplex (E446P complex) (dsDNA)
DNA 1: GAGGTGTGGC
DNA 2: GCCACACCTC
modifications: methylation of the opposite-strand CpA not stated in the material
In the case of B2, the binding result with Klf4 ZnF1-3 E446P [2] is given as “binds”.

B3: TpG/5mCpA crystal duplex (dsDNA)
DNA 1: GAGGTGTGGC
DNA 2: GCCACACCTC
modifications: 5mC at position 5 of strand 2
Take B3: the binding result in the data set with Klf4 ZnF1-3 WT (E446) [3] is “binds”.

B4: TpG/CpA crystal duplex (dsDNA)
DNA 1: GAGGTGTGGC
DNA 2: GCCACACCTC
On to B4, for which the binding result with Klf4 ZnF1-3 WT (E446) [4] is recorded as “binds”.

B5: 5mCpG/5mCpG crystal duplex (dsDNA)
DNA 1: GAGGCGTGGC
DNA 2: GCCACGCCTC
modifications: 5mC at position 5 of strand 1 and position 5 of strand 2
Consider B5, for which, in the data set with Klf4 ZnF1-3 E446P [5], the binding result is given as “binds”.

B6: CpG unmodified FP probe (dsDNA)
DNA 1: GAGGCGTGGC
DNA 2: TTGCCACGCCTC
In the case of B6, the binding signal in the data set with Klf4 ZnF1-3 E446P [6] was ~4 fold tighter than P1 with N1.

B7: 5mCpG hemimethylated FP probe (dsDNA)
DNA 1: GAGGCGTGGC
DNA 2: TTGCCACGCCTC
modifications: 5mC at position 5 of strand 1; strand 2 unmethylated
B7: the binding signal with Klf4 ZnF1-3 WT (E446) [7] is 1.5 fold tighter than P1 with N1. The molecule further returned a dissociation constant Kd with Klf4 ZnF1-3 E446P [8] of less than 5 nM.

B8: CpG/CpG crystal duplex (dsDNA)
DNA 1: GAGGCGTGGC
DNA 2: GCCACGCCTC
Turning to B8, the binding result in the data set with Klf4 ZnF1-3 E446D was “binds”.
